Source: publication PMC3373503, “Ca^2+ Regulates the Drosophila Stoned-A and Stoned-B Proteins Interaction with the C2B Domain of Synaptotagmin-1” (PLoS ONE, 2012)
Blank lines part the entries; values can stand above or below the molecule they belong to.

Columns and labels:
Assay in all cases: pull-down; 1.5 µM GST protein as bait on glutathione resin, 0.25 µM MBP protein as prey; 2 h at 4°C; 10 mM HEPES pH 7.4, 1 mM MgCl2, 1 mg/ml BSA, 1 mM CaCl2 (Ca2+ binding buffer); eluted with glutathione, anti-MBP Western blot, densitometry
[1] = biological target: GST-C2B, C2B domain of Synaptotagmin-1 (wild type) (Drosophila) (UniProt P21521)
[2] = biological target: GST-ΔW, C2B domain of Synaptotagmin-1 truncated immediately before the WHTL motif (Drosophila) (UniProt P21521)
[3] = biological target: T1, GST-C2B, C2B domain of Synaptotagmin-1 (wild type) (Drosophila, UniProt P21521 323-474); conditions: both partners purified
T1 construct: Synaptotagmin-1 (SYT-1), Drosophila, C2B domain, printed as 'bases 323–474' (read as residues 323-474), from the Drosophila syt cDNA clone, in pGEX-4T-1; also called GST SYT-1 C2B domain; C2B SYT-1; source: E. coli, purified (glutathione resin, washed free of nucleic acids)

fold binding against binding to GST-C2A [1]: 4 fold | fold binding in Ca2+ buffer against EGTA buffer [1]: 4 fold | fold binding against binding to GST-C2B [2]: > 5 fold
Molecule: MBP-STNB (MHD), µ-homology domain of Stoned-B (from UniProt Q24212 1-1262) (domain or fragment)

fold binding against binding to GST-C2A [1]: 3 fold | fold binding in Ca2+ buffer against EGTA buffer [1]: 2.5 fold | fold binding against binding to GST-C2B [2]: > 3 fold
Molecule: MBP-STNA (CCD), coiled-coil domain of Stoned-A (from UniProt Q24211 1-850) (domain or fragment)

fold binding against binding to GST-C2B [2]: 4 fold
Molecule: MBP-C2B, C2B domain of Synaptotagmin-1 (wild type) (from UniProt P21521 323-474) (domain or fragment)

binding result [3]: binds
B1: MBP-C2B, C2B domain of Synaptotagmin-1 (wild type) (domain or fragment, Drosophila, UniProt P21521 323-474, looked up)
chain: QEKLGDICFSLRYVPTAGKLTVVILEAKNLKKMDVGGLSDPYVKIAIMQNGKRLKKKKTSIKKCTLNPYYNESFSFEVPFEQIQKICLVVTVVDYDRIGTSEPIGRCILGCMGTGTELRHWSDMLASPRRPIAQWHTLKDPEETDEILKNMK
notes: Synaptotagmin-1 (SYT-1), Drosophila, C2B domain; 'the DNA encoding the C2B domain was also inserted into pMAL-c2X'; also called full length MBP-C2B; wild-type MBP-C2B; source: E. coli, purified (amylose resin, washed free of nucleic acids)
